Reference: patent publication US20220387578A1 (VANDERBILT UNIVERSITY, published 2022)

Target: T1, eHead_H1_v3.1_mC
T1 chain: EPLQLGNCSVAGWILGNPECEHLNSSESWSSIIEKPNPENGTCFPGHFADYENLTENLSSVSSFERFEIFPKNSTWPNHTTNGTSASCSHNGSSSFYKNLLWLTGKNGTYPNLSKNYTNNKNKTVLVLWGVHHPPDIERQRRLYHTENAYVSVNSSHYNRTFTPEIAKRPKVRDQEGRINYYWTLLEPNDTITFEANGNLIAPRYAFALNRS
Test: SPR

B1: FluA20 (as used in the SPR experiments of Example 4) (antibody, V domains shown)
VH: QVQLQESGPGLVKPSETLSLTCSVSGVSVTSDIYYWTWIRQPPGKGLEWIGYIFYNGDTNYNPSLKSRVTMSIDTSKNEFSLRLTSVTAADTAVYFCARGTEDLGYCSSGSCPNHWGQGTLVTVSS
VL: DIQMTQSPSSLSASIGDRVTITCRPSQNIRSFLNWFQHKPGKAPKLLIYAASNLQSGVPSRFSGSGSGTEFTLTIRSLQPEDFATYYCQQSYNTPPTFGQGTKVEIK
Kd: 2.8 nM

B2: FluA20_UCA (as used in the SPR experiments of Example 4) (antibody, V domains shown)
VH: QVQLQESGPGLVKPSETLSLTCTVSGGSVSSGSYYWSWIRQPPGKGLEWIGYIYYSGSTNYNPSLKSRVTISVDTSKNQFSLKLSSVTAADTAVYYCARGTEDLGYCSGGSCPNHWGQGTLVTVSS
VL: not shown
Kd: 220 nM
